Marks after values point to notes of the source that are not given here.
Legend:
[1] = system: EBC-1 (human lung squamous cell carcinoma) xenograft; experiment: EBC-1 xenograft tumor growth inhibition; assay type: in vivo; settings: 10 mg/kg/day IP QDx1, SCID-bg mice
[2] = Percent aggregates of ADC by size exclusion chromatography; assay type: physicochemical; settings: chAb3-CZ DAR2, DAR4 and broad DAR species (Table 12)
Text: Procedures for DAR and percent aggregate determination are described above in Example 5.

Molecule | Growth Inhibition TGD (%) [1] | Growth Inhibition TGImax (%) [1] | Response Frequency CR (%) [1] | Response Frequency OR (%) [1] | Response Frequency PR (%) [1] | % Aggregates by SEC [2]
ChAb3- CZ-DAR2 (conjugate) VH: EVKLVESGGGLVQPGNSLRLSCATSGFTFIDYYMSWVRQSPGKALEWLGFIRNKANGYTTEYSASVKGRFTISRDNSQSILYLQMDTLRAEDSATYYCTRDRPAWFVYWGQGTLVTVSA VL: DIVMSQSPSSLAVSVGEKVTMSCKSSQSLLYSSNQKNYLAWYQQKPGQSPKLLIYWASTRESGVPDRFTGSGSGTDFTLTFSSVRAEDLAVYYCQQYYSYPYTFGGGTKLEIK | 32* % | 55* % | 0% | 0% | 0% | 0.5%
ChAb3- CZ-Broad DAR (conjugate) VH: EVKLVESGGGLVQPGNSLRLSCATSGFTFIDYYMSWVRQSPGKALEWLGFIRNKANGYTTEYSASVKGRFTISRDNSQSILYLQMDTLRAEDSATYYCTRDRPAWFVYWGQGTLVTVSA VL: DIVMSQSPSSLAVSVGEKVTMSCKSSQSLLYSSNQKNYLAWYQQKPGQSPKLLIYWASTRESGVPDRFTGSGSGTDFTLTFSSVRAEDLAVYYCQQYYSYPYTFGGGTKLEIK | – | – | – | – | – | 12.2%

From US20230135723A1, “ANTI-CD98 ANTIBODIES AND ANTIBODY DRUG CONJUGATES” (AbbVie Inc., priority 2016, published 2023)
